Drawing on article PMC7059301, this text covers stoichiometry N for 1 substance.

The test addresses Aspergillus niger α-xylosidase AxlA (Aspergillus niger). Description: crystal structure.

“Aspergillus niger α-xylosidase AxlA (enzyme)” had a stoichiometry N of 4.

The term stoichiometry N denotes the number of molecules, sites or subunits per partner or assembly.
